Measured values published in patent US20200172617A1.

Assays:
[1] = molecular target: LAG-3 (as used in the Biacore assay) (UniProt P18627); experiment: Biacore (SPR); format not described
[2] = molecular target: soluble LAG-3 (human) (UniProt P18627); experiment: population PK/PD target-mediated drug disposition model (quasi-equilibrium) fitted to antibody and total soluble LAG-3 concentrations in patient serum; model estimate
[3] = molecular target: LAG-3 (in the in vitro cell-based assays) (UniProt P18627); experiment: in vitro cell-based assays; format not described

Kd [1]: 0.1 nM
Kd [2]: 1.5 nM
Kd [3]: 1.9 to 2.3 nM
B1: LAG525 (antibody, INN chains, looked up, V domains shown)
VH: QVQLVQSGAEVKKPGASVKVSCKASGFTLTNYGMNWVRQARGQRLEWIGWINTDTGEPTYADDFKGRFVFSLDTSVSTAYLQISSLKAEDTAVYYCARNPPYYYGTNNAEAMDYWGQGTTVTVSS
VL: DIQMTQSPSSLSASVGDRVTITCSSSQDISNYLNWYLQKPGQSPQLLIYYTSTLHLGVPSRFSGSGSGTEFTLTISSLQPDDFATYYCQQYYNLPWTFGQGTKVEIK
